# Data taken from article PMC7684303.
# Molecular target: MBS complex (membrane-bound sulfane sulfur reductase), monomeric 13-subunit complex (Pyrococcus furiosus)
# Experiment: cryo-EM structure; MBS purified in DDM, ~5 mg/ml; grids prepared under aerobic conditions; twofold symmetry applied; overall resolution 4.0 Å
substance,measurement,value
"MBS complex (membrane-bound sulfane sulfur reductase), monomeric 13-subunit complex",stoichiometry N,2
